According to patent US20170058032A1 (published 2017):

Target: T1, extracellular domain of human CD79b fused to Fc (huCD79becd-Fc) (UniProt P40259 29-159)
T1 chain: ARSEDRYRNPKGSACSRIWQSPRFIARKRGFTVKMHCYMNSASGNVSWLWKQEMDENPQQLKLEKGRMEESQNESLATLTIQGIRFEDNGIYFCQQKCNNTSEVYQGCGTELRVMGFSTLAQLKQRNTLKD
Test: Biacore; Fab

B1: MA79b Fab (Fab, V domains shown)
VH: EVQLQQSGAELMKPGASVKISCKATGYTFSSYWIEWVKQRPGHGLEWIGEILPGGGDTNYNEIFKGKATFTADTSSNTAYMQLSSLTSEDSAVYYCTRRVPVYFDYWGQGTSVTVSS
VL: DIVLTQSPASLAVSLGQRATISCKASQSVDYDGDSFLNWYQQKPGQPPKLFIYAASNLESGIPARFSGSGSGTDFTLNIHPVEEEDAATYYCQQSNEDPLTFGAGTELELKR
Kd: 200 nM
